The chains are these.
B1: 118N121_B8_1_OK/1-135 (VHH)
VHH: EVQLVESGGGLVQDGGSLRLSCAASGQLANFASYAMGWFRQAPGKAREFVAAIRGSGGSTYIADPARSTYYADFVKGRFTISRDNAKNTVYLQMNSLKPEDTAVYYCACETFNSISNLPGEYDYWGQGTQVTVSS
notes: C-term myc-His6 tag
B2: 21A41/1-120 (VHH)
VHH: EVQLVESGGGLVQAGGSLRLSCAASGRIFSNYAWSWFRQAPGKERGFVAAINWSGGYTDYADSVKGRFTISRDNTKNTVYLQMNSLKPEDTAVYYCRPGWVTPSYEYGNWGQGTQVTVSS
notes: C-term myc-His6 tag
B3: 118N121_B2_1_OK/1-130 (VHH)
VHH: EVQLVESGGGLVQAGGSLRLSCAASGFSLDDRAIAWFRQAPGKAREGVSCITPHHGGIIFTRESVKGRFATSSDSAKNTVYLQMHSLKPEDTAVYYCATLRTDYSINWANCQRDSLYGYWGQGTQVTVSS
notes: C-term myc-His6 tag
B4: 118N121_A6_2_OK/1-123 (VHH)
VHH: EVQLVESGGGLVQAGGSLRLSCVASGRTFSGYSVGWFRQSPGKEREFVGGINWSGRTYYVDSVKGRFTFSRDNAKNTVYLQMNSLKPEDTAIYLCAVDRFNTIANLPGEYDYWGQGTQVTVSS
notes: C-term myc-His6 tag
B5: 118N121_A8_2_OK/1-124 (VHH)
VHH: EVQLVESGGGLVQAGGSLTLSCVISGLTLESHAMGWFRQAPGEEREFVATIRWSGSATFYSDSVKGRFTISRDNAKNTVYLQMNSLKPEDTAVYYCAARKIYRSLSYYGDYDSWGQGTQVTVSS
notes: C-term myc-His6 tag
B6: 118N121_B7_1_OK/1-119 (VHH)
VHH: EMQLVESGGGLVQPGGSLRLSCAASGNIPPINAMAWYRQAPGNERELVAAVTSGGGTNYATSVKGRFIISRDDSKNTVDLQMNSLKPEDTAVYYCNLGGWTRTHPFDYWGQGTQVTVSS
notes: C-term myc-His6 tag
B7: 13F81A/1-128 (VHH)
VHH: EVQLVESGGGLVQAGGSLRLSCAASGRTFSRYAMGWFRQAPGKEREFVAAISWTGGSSYYGDSVKGRSTISRENAENTVYLQMNSLKPEDTAVYYCAANSDEFYSGTLKLQSRMVEYWGQGTQVTVSS
notes: C-term myc-His6 tag
B8: 118N121_A7_1_OK/1-122 (VHH)
VHH: EVQLVESGGGLVQPGGSLRLSCAASGNIKSIDVMGWHRQAPGKERELVSDISFGGNTNYANSVKGRFTISRDNAKNTVYLQMNSLKPEDTAVYYCYADILYKTDIYYRNDFWGQGTQVTVSS
notes: C-term myc-His6 tag
B9: 118N121_A11_1_OK/1-120 (VHH)
VHH: EVQLVESGGGLVQPGGSLRLSCAASGFPFGMYGMRWVRQAPGKGPERVSSINSDGDTTYYADSVKGRFTISRDNDENMLYLQMNSLKPEDTAVYYCATGFSDRSFAVTHKGQGTQVTVSS
notes: C-term myc-His6 tag
B10: 13G11/1-122 (VHH)
VHH: EVQLVESGGGLVQAGGSLRLSCAASGRTFISNYAMGWFRQAPGKEREFVATINWSGSHSDYADSVKGRFTISRDNAKNTVYLQMNNLKSEDTAVYYCAPGWGTAPLSTSVYWGQGTQVTVSS
notes: C-term myc-His6 tag
B11: 12E21/1-115 (VHH)
VHH: EVQLVESGGGLVQPGGSLRLSCAASGSIDSIHVVGWYRKAPGKQREVVAYIGTAGATHYADSVKGRFTISRDNAENLVYLQMNNLKPEDTAVYYCSAGWGDSAYWGQGTQVTVSS
notes: C-term myc-His6 tag
B12: 118N121_A10_1_OK/1-131 (VHH)
VHH: EVQLVESGGGLVQAGGSLRLSCAASGFSFADYAIGWFRQAPGKEREGVSCIANSEGTKYYADSAQGRLPISSDNAKKTVYLQMDSLKPEDTAVYYCAALPYTICPVVVKKGAVYYGVDDYWGKGTQVTVSS
notes: C-term myc-His6 tag
B13: 118N121_A5_2_OK/1-114 (VHH)
VHH: EVQLVESGGGSVQPGGSLRLSCVASGSISSTNAMGWHRQVSGKERELVAIVTDGFTNYADFAKGRFTISRDNAKTTVYLQMNSLQPEDTARYYCRYSGIGTDNWGQGIEVTVSS
notes: C-term myc-His6 tag
B14: 118N121_A9_2_OK/1-114 (VHH)
VHH: B13 VHH with T31V, S41P, E44Q
notes: C-term myc-His6 tag
B15: 118N121_A2_2_OK/1-124 (VHH)
VHH: KVQLVESGGGLVQAGGSLRLSCAASGRTFSNYSVGWFRQAPGKEREFVAALSKDGARTYYAASVKGRFTIYRDNAKNVVYLQMSVLNGEDTAVYYCAADHFTFMSNLPSEYDYWGQGTQVTVSS
notes: C-term myc-His6 tag
B16: 12E33/1-119 (VHH)
VHH: EVQLVESGGGMVQAGGSLRLSCAASGLTLSNYGMGWFRQAPGKEREFVSSINWSGTHTYDADFVKGRFIISRDNAKNTVYLQINSLKPEDTAVYYCAAGGWGTGRYNYWGQGTQVTVSS
notes: C-term myc-His6 tag
B17: 11B102/1-118 (VHH)
VHH: EVQLVESGGGLVQAGGSLRLSCAASGGIFSSHAISWFRQAPGKAREFVAAINWSGSHRDYADSAKGRFTISRDNAKKTAYLQMNSLRPEDTAVYYCVGGWKTDEYVKWGQGTQVTVSS
notes: C-term myc-His6 tag
B18: 118N121_B7_4_OK/1-124 (VHH)
VHH: EVQLVESGGGLEQAGGSLRLSCAASGLTFRSAAMGWFRQGPGKEREFVAAISRDGAATYYTDSVKGRFTISRDNAKNTVFLQMNSLKPEDTAIYYCAADFRLARLRVADDYDYWGQGTQVTVSS
notes: C-term myc-His6 tag
B19: 14H101/1-128 (VHH)
VHH: EVQLVESGGGLVQAGGSLRLSCAASGRTFISSPMGWFRQAPGKEREVVAATTRSGGLPYYSDSVKGRFTISRDNAKNTVDLQMSSLKPEDTAAYYCAADQKYGMSYSRLWLVSEYEYWGQGTQVTVSS
notes: C-term myc-His6 tag
B20: 13F21/1-123 (VHH)
VHH: EVQLVESGGGLVQSGGSLRLSCVASGTIVSINATSWYRQAPGNQRELVATIIGDGRTHYADSVKDRFTISRDAAANLVYLQMNSLKPSDTAIYSCNANGIESYGWGNRHFNYWTVGTQVTVSS
notes: C-term myc-His6 tag
B21: 118N121_B3_1_OK/1-123 (VHH)
VHH: EVQLVESGGGLVQPGGSLRLSCAASGRTFSDLALGWFRRAPGKEREHVAAISSSGVTTIYADSVRGRFTISRDEAKNTVYLEMNSLKTDDTAVYYCAARLTMATPNQSQYYYWGQGTQVTVSS
notes: C-term myc-His6 tag
B22: 2E5 (VHH)
VHH: EVQLVESGGSLVQPGESLRLSCAASGFTFDDYAMSWVRQAPGKGLEWISSINWSGTHTDYADSVKGRFTISRNNANNTLYLQMNNLKFEDTAVYYCAKNWRDAGTTWFEKSGSAGQGTQVTVSS
notes: C-term myc-His6 tag
B23: 13D8 (VHH)
VHH: B22 VHH with E16G, S35T, P41S, I48V, A61T, N85S, F88S, R101G
notes: C-term myc-His6 tag
B24: 13B2 (VHH)
VHH: B22 VHH with E16G, T58K
notes: C-term myc-His6 tag
B25: 15F9 (VHH)
VHH: B22 VHH with E16G, S35T, I48V, A61T, D62G, N85S, F88S, E89D, R101G
notes: C-term myc-His6 tag
B26: 27D4 (VHH)
VHH: B22 VHH with E16G, S35T, P41S, I48V, N85S, F88S, R101G
notes: C-term myc-His6 tag
B27: 17D8 (VHH)
VHH: B22 VHH with Q13P, E16G, A24V, I48V, A61T, T78M, N85S, F88S
notes: C-term myc-His6 tag
B28: 17E10 (VHH)
VHH: B22 VHH with E16G, S35T, I48V, Y60C, A61T, N85S, F88S, R101G
notes: C-term myc-His6 tag
B29: 30E10 (VHH)
VHH: B22 VHH with E1K, Q13P, E16G, S35T, I48V, A61T, N85S, F88S, R101G
notes: C-term myc-His6 tag
B30: 39C1 (VHH)
VHH: B22 VHH with Q13P, E16G, A33G, I48V, A61T, N85S, F88S, R101G
notes: C-term myc-His6 tag
B31: 17E7 (VHH)
VHH: B22 VHH with E16G, A40V, I48V, N85S, F88S
notes: C-term myc-His6 tag
B32: 27B1 (VHH)
VHH: B22 VHH with E16G
notes: C-term myc-His6 tag
B33: 15G1 (VHH)
VHH: B22 VHH with Q13P, E16G, I48V, A61T, N85S, F88S
notes: C-term myc-His6 tag
B34: 29H1 (VHH)
VHH: B22 VHH with Q13P, E16G, I48V, D59G, A61T, N85S, F88S, R101G
notes: C-term myc-His6 tag
B35: 5F8 (VHH)
VHH: B22 VHH with E16G, M34L
notes: C-term myc-His6 tag
B36: 17G8 (VHH)
VHH: B22 VHH with Q13P, E16G, I48V, D59G, A61T, N85S, F88S, R101G
notes: C-term myc-His6 tag
B37: 27G2 (VHH)
VHH: B22 VHH with E16G, S35T, A40T, I48V, A61T, N85S, F88S, E89D, R101G, Q116P
notes: C-term myc-His6 tag
B38: 17E2 (VHH)
VHH: B22 VHH with Q13P, E16G, A33G, I48V, A61T, N85S, F88S, R101G
notes: C-term myc-His6 tag

Positions count from the first letter of the chain named.

One assay addresses T1, recombinant human ErbB2/Fc chimera (human, UniProt P04626 23-652).
T1 construct: bought from R&D Systems; also called rhErbB2-Fc; rhErb2-Fc; Fc part of the bought chimera not given; not described
Briefly: ELISA, coated ErbB2/Fc. For orientation: An ELISA detects its analyte on a solid surface through an enzyme-linked reagent.
In the case of B1, the binding result was “binds”. On to B2, for which the binding result was “binds”. Turning to B3, the binding result was “binds”. Still for that read-out and setting: with B4 the entry was “binds”; with B5, “binds”. The same measure, in the same setting: the same measure for B6: “binds”. On the same count and under the same terms, with B7 the entry was “binds”. In the case of B8, the binding result is “binds”. Still for that read-out and setting: with B9 the entry was “binds”; with B10, “binds”. Still for that read-out and setting: with B11 the entry was “binds”; with B12, “binds”; with B13, “binds”. The same measure, in the same setting: the same measure for B14: “binds”; for B15: “binds”.

Consider B16, for which the binding result was “binds”.

As to B17, the binding result was “binds”. With B18, the binding result is given as “binds”. On the same count and under the same terms, with B19 the entry was “binds”; with B20, “binds”; with B21, “binds”.

The target in another assay is T2, Epidermal Growth Factor Receptor 2 (HER2) (human, UniProt P04626 23-1255).
T2 construct: whole, on cells; the cell line is named under assay; also called ErbB-2; ERBB2
Briefly: FMAT competition on SKBR3 cells, periplasmic extract.
As for B22, the “% blocking of Herceptin binding” value is over 90%. The same measure, in the same setting: the same measure for B23: over 90%; for B24: over 90%.

In the case of B25, the “% blocking of Herceptin binding” value was over 90%.

Consider B26, for which the “% blocking of Herceptin binding” value was over 90%.

Take B27: the “% blocking of Herceptin binding” value is over 90%. Still for that read-out and setting: with B28 the figure was over 90%.

Take B29: the “% blocking of Herceptin binding” value was over 90%. The same measure, in the same setting: with B30 the figure was over 90%.

On to B31, for which the “% blocking of Herceptin binding” value is over 90%. With B32, the “% blocking of Herceptin binding” value is over 90%. On the same count and under the same terms, the same measure for B33: over 90%; for B34: over 90%.

As for B35, the “% blocking of Herceptin binding” value was over 90%. Consider B36, for which the “% blocking of Herceptin binding” value was over 90%. On the same count and under the same terms, the same measure for B37: over 90%. The same measure, in the same setting: the same measure for B38: over 90%.

These data come from patent publication US20150232562A1 (Ablynx, published 2015).
